From publication PMC4731314 (Cell reports, 2016)
Where a chain is given by its changes, count along the chain named.

B1: full-length Imp2 purified from S. pombe (natural protein, UniProt Q10199 1-670, looked up)
chain: MSQQLSFNASSAKPDKSFSNYFWGANDEGYHALLSRFSDVKHINEELRSFYHERANIEEDYAKRMAKLSRTTFSSLETGCLKESVQVMKAEVDNMAKSHLQISQLLQDDVENAFTRYAASLKDKKKMIVSGIEKVHKDKLSKHQALVKAQDKYHYLCKKVNYYVSQQNMLFGKELEKNNAKLNKTQNAITASSSDYQSAVAAVRDSYARWTNEWRSTCDKLQDIEEERRHFLKSVMWTFTLLISRSCFNDDQACERIRKNLEQCSVSQDVLEFIDAKSTGTGIPQPPKFYDYYKGEVPDDSVELVQANFQRAQTKIENDNMPLNRPYVLSATARNESSFENTLPNTPSAIQSLTTVSSNSSQNGRSSPKKSFLSKFKLTSRPSTPNVGNTAPDALSSPRNDSPLTSAADEQMKHLSLQEEPKQNPTPAAPGAFPNSNTLPPRYNELGSLPSPNSVSFTEDSRPNVNTPSRRQQIQEEFGSVLQMENRAVSPVYDSRKNGSRSSFTLRKSRSPKRPSSSLSQNASRLPRSLTPGNLEPNYDFGVRVDPASGTAPTDDEPYTDRDSSFVDDTINTKATGNTSNRLSLPAYPTDGGDTSIDNPTSTDGQRILGYVSALYDYDAAIPEEISFRKGDTIAVLKLYEDGWWEGFVVGEDDHNRGQFPSNFVREIEV
B2: Imp2(Dimer-Dimer-4A) purified from S. pombe (natural protein, UniProt Q10199 1-670, looked up)
chain: B1 chain with K97A, Q101A, D109A, R116A

Biological target: the molecule itself
Assay: AUC

Protein	binding result	stoichiometry N
B1	binds	–
B2	–	2
